The values that follow come from article PMC2553597 (Nucleic Acids Research, 2008).

To fix the notation:
B1: human RAD54B N-terminal fragment, amino acid residues 26-225 (RAD54B_(26–225)) (domain or fragment, UniProt Q9Y620 26-225, looked up)
chain: SNPGLNEEITKLNPDIKLFEGVAINNTFLPSQNDLRICSLNLPSEESTREINNRDNCSGKYCFEAPTLATLDPPHTVHSAPKEVAVSKEQEEKSDSLVKYFSVVWCKPSKKKHKKWEGDAVLIVKGKSFILKNLEGKDIGRGIGYKFKELEKIEEGQTLMICGKEIEVMGVISPDDFSSGRCFQLGGGSTAISHSSQVAR
B2: GST-fused DMC1 deletion mutant, amino acid residues 153-214 (fragment VI) (domain or fragment, UniProt Q14565 153-214, looked up)
chain: GGKIIFIDTENTFRPDRLRDIADRFNVDHDAVLDNVLYARAYTSEHQMELLDYVAAKFHEEA
B3: dsDNA (oligos 2/2a) (dsDNA)
DNA 1: TGGGTCAACGTGGGCAAAGATGTCCTAGCAATGTAATCGTCTATGACGTT
DNA 2: AACGTCATAGACGATTACATTGCTAGGACATCTTTGCCCACGTTGACCCA
B4: 3'-PX junction (oligos 2/6/7/10) (structured_DNA)
DNA 1: B3 DNA 1
DNA 2: GTCGGATCCTCTAGACAGCTCCATGATCACTGGCACTGGTAGAATTCGGC
DNA 3: CAACGTCATAGACGATTACATTGCTACATGGAGCTGTCTAGAGGATCCGA
DNA 4: GGACATCTTTGCCCACGTTGACCC
B5: 5'-flapped DNA (oligos 2/8/15) (structured_DNA)
DNA 1: B3 DNA 1
DNA 2: CAACGTCATAGACGATTACATTGCTAATCACTGGCACTGGTAGAATTCGGC
DNA 3: TGCCGAATTCTACCAGTGCCAGTGAT

Data set [1] deals with the molecule itself. In words: SEC.
For data set [2], the target named is T1, DMC1 (UniProt Q14565 1-340).
T1 sequence (looked up): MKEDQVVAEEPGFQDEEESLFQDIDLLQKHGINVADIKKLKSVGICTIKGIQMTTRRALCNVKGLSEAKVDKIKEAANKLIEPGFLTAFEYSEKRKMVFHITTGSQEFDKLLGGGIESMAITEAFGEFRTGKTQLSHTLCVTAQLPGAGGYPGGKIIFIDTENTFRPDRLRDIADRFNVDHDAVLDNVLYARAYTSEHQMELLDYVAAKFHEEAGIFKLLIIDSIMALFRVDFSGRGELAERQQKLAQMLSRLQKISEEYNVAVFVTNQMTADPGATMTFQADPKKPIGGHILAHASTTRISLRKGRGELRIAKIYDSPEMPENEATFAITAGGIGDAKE
Nature of the data set: pull-down.

Data set [3] addresses B1. Nature of the data set: pull-down.
For data set [4], the target named is T2, RAD54B26-225 (Homo sapiens, UniProt Q9Y620 26-225).
T2 sequence: B1 chain
Nature of the data set: EMSA.

Data set [5] deals with T2, RAD54B26-225. In words: EMSA. The source holds these as a separate data set.
Data set [6] deals with T2, RAD54B26-225. Nature of the data set: EMSA. The source holds these as a separate data set.
For data set [7], the target named is T2, RAD54B26-225. In words: EMSA. This is another data set of the same source.

Read-outs that look alike come from different tables or passages of the source.

On to B1, for which the “stoichiometry N” value in data set [1] was 2. In addition, in data set [2], the binding result is recorded as “binds”.
ASTTRISLRKGRGELRIAKIYDSPEMPENEATFAITAGGIGDAKE (domain or fragment, UniProt Q14565 296-340, looked up) [GST-fused DMC1 deletion mutant, amino acid residues 296-340 (fragment X)]: in data set [3], the binding result is recorded as “binds”.
The same measure, in the same setting: under B2 stands “binds”.
B3: in data set [4], the binding result is “binds”.
As for B4, the binding result in data set [5] is “binds”.
Take B5: the binding result in data set [6] is “binds”.
For the molecule AAAAAAAAAAAAAAAAAAAAAAAAAAAAAAAAAAAAAAAAAAAA (ssDNA) [polyA 44-mer], the binding result in data set [7] is recorded as “binds”.
